Earlier results in paper PMC4271544.

Target: Capping protein (CP) (Homo sapiens) (UniProt P52907)

Kd: 40 nM
Substance: V-1 (myotrophin) (from UniProt P58546)
